{"source": "patent US20130115645", "molecular_target": "human prothrombin (Enzyme Research Laboratories), P00734", "data": [{"protein": "Fibrinogen-like protein 2 (FGL-2)/fibroleukin, human (protein) NNETEEIKDERAKDVCPVRLESRGKCEEAGECPYQVSLPPLTIQLPKQFSRIEEVFKEVQNLKEIVNSLKKSCQDCKLQADDNGDPGRNGLLLPSTGAPGEVGDNRVRELESEVNKLSSELKNAKEEINVLHGRLEKLNLVNMNNIENYVDSKVANLTFVVNSLDGKCSKCPSQEQIQSRPVQHLIYKDCSDYYAIGKRSSETYRVTPDPKNSSFEVYCDMETMGGGWTVLQARLDGSTNFTRTWQDYKAGFGNLRREFWLGNDKIHLLTKSKEMILRIDLEDFNGVELYALYDQFYVANEFLKYRLHVGNYNGTAGDALRFNKHYNHDLKFFTTPDKDNDRYPSGNCGLYYSSGWWFDACLSANLNGKYYHQKYRGVRNGIFWGTWPGVSEAHPGGYKSSFKEAKMMIRPKHFKP", "values": [{"measurement": "FGL-2 prothrombinase activity (thrombin generation assay, chromogenic substrate, 405 nm)", "result": "FGL-2 prothrombinase activity in HUVEC was only observed following maximal stimulation with TNFα"}]}]}
